Experimental data reported in the supplement of paper PMC9112550, “Optimization of the antimicrobial peptide Bac7 by deep mutational scanning” (BMC Biology, 2022).

Test system: Escherichia coli TOP10
Test: shrunken log2 fold change of peptide-encoding DNA abundance (4.5 h post-induction vs induction); higher = less antimicrobial activity (less host growth inhibition)
Conditions: time post-induction: 4.5 h; library: site-saturation at positions 5, 18, 19, 20
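Note: peptides expressed intracellularly from a pBAD plasmid library in pooled LB shake-flask culture, induced with 0.3% L-arabinose, DNA abundance read by NGS, three biological replicates, DESeq2 with apeglm shrinkage.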

Row | Sequence | shrunken log2 fold change
1 | RRIRERPPRLPRPRPRPNCNPRP | -0.848
2 | RRIRMRPPRLPRPRPRPHAMPRP | -0.0135
3 | RRIRKRPPRLPRPRPRPSLWPRP | 0.187
4 | RRIRRRPPRLPRPRPRPMPRPRP | 0.811
5 | RRIRTRPPRLPRPRPRPFSFPRP | -0.341
6 | RRIRQRPPRLPRPRPRPPINPRP | -0.00134
7 | RRIRYRPPRLPRPRPRPFKHPRP | -0.349
8 | RRIRWRPPRLPRPRPRPHDRPRP | 0.00489
9 | RRIRTRPPRLPRPRPRPCKKPRP | -0.0502
10 | RRIRWRPPRLPRPRPRPYYEPRP | -0.742
11 | RRIRHRPPRLPRPRPRPHLAPRP | -0.0341
12 | RRIRWRPPRLPRPRPRPNLWPRP | 0.587
13 | RRIRARPPRLPRPRPRPCPPPRP | 0.156
14 | RRIRWRPPRLPRPRPRPHKDPRP | -0.115
15 | RRIRRRPPRLPRPRPRPDSTPRP | 0.187
16 | RRIRVRPPRLPRPRPRPSLEPRP | 0.163
17 | RRIRYRPPRLPRPRPRPWIGPRP | -0.314
18 | RRIRLRPPRLPRPRPRPKGNPRP | -0.0951
19 | RRIRCRPPRLPRPRPRPMNCPRP | -0.0537
20 | RRIRHRPPRLPRPRPRPLQQPRP | 0.0446
21 | RRIRVRPPRLPRPRPRPYVDPRP | -0.0757
22 | RRIRNRPPRLPRPRPRPRWVPRP | -0.172
23 | RRIRPRPPRLPRPRPRPFVIPRP | 0.00225
24 | RRIRARPPRLPRPRPRPMSEPRP | 0.337
25 | RRIRQRPPRLPRPRPRPESPPRP | 0.0606

Row | Sequence | shrunken log2 fold change
26 | RRIRVRPPRLPRPRPRPWTSPRP | -0.329
27 | RRIRDRPPRLPRPRPRPWTLPRP | -0.424
28 | RRIRARPPRLPRPRPRPAGFPRP | 0.365
29 | RRIRCRPPRLPRPRPRPDEHPRP | -0.417
30 | RRIRMRPPRLPRPRPRPSKLPRP | -0.0679
31 | RRIRFRPPRLPRPRPRPFRFPRP | -0.129
32 | RRIRRRPPRLPRPRPRPCQTPRP | -0.041
33 | RRIRWRPPRLPRPRPRPHAPPRP | 0.517
34 | RRIRNRPPRLPRPRPRPQQLPRP | -0.0538
35 | RRIRRRPPRLPRPRPRPHWCPRP | 0.0137
36 | RRIRPRPPRLPRPRPRPTQTPRP | 0.147
37 | RRIRQRPPRLPRPRPRPKKPPRP | 0.0619
38 | RRIRCRPPRLPRPRPRPSTQPRP | -0.495
39 | RRIRKRPPRLPRPRPRPCRLPRP | -0.298
40 | RRIRHRPPRLPRPRPRPNNIPRP | -1.2
41 | RRIRSRPPRLPRPRPRPARIPRP | 0.0694
42 | RRIRTRPPRLPRPRPRPSYTPRP | -0.761
43 | RRIRLRPPRLPRPRPRPANYPRP | -0.032
44 | RRIRQRPPRLPRPRPRPEMPPRP | 0.188
45 | RRIRSRPPRLPRPRPRPPSLPRP | -0.119
46 | RRIRDRPPRLPRPRPRPVLIPRP | -0.0161
47 | RRIRERPPRLPRPRPRPGALPRP | 0.122
48 | RRIRVRPPRLPRPRPRPMSRPRP | 0.0217
49 | RRIRPRPPRLPRPRPRPWIDPRP | -0.35
50 | RRIRGRPPRLPRPRPRPEVNPRP | 1.62

Row | Sequence | shrunken log2 fold change
51 | RRIRVRPPRLPRPRPRPHYMPRP | -1.03
52 | RRIRQRPPRLPRPRPRPEVCPRP | 0.134
53 | RRIRNRPPRLPRPRPRPRPAPRP | 0.313
54 | RRIRDRPPRLPRPRPRPMSPPRP | 0.0807
55 | RRIRSRPPRLPRPRPRPWWCPRP | 0.0769
56 | RRIRERPPRLPRPRPRPALDPRP | -0.0626
57 | RRIRVRPPRLPRPRPRPCEFPRP | -0.242
58 | RRIRERPPRLPRPRPRPEVVPRP | 0.122
59 | RRIRNRPPRLPRPRPRPMLGPRP | 0.0259
60 | RRIRLRPPRLPRPRPRPHKQPRP | -0.0935
61 | RRIRSRPPRLPRPRPRPALRPRP | 0.169
62 | RRIRGRPPRLPRPRPRPYQAPRP | -0.119
63 | RRIRPRPPRLPRPRPRPQNNPRP | -0.812
64 | RRIRRRPPRLPRPRPRPFVTPRP | -0.0614
65 | RRIRTRPPRLPRPRPRPPVCPRP | 0.713
66 | RRIRHRPPRLPRPRPRPATSPRP | -0.00994
67 | RRIRMRPPRLPRPRPRPQSNPRP | 0.0557
68 | RRIRKRPPRLPRPRPRPSVVPRP | 0.45
69 | RRIRLRPPRLPRPRPRPSKWPRP | -0.348
70 | RRIRSRPPRLPRPRPRPEKWPRP | 0.0431
71 | RRIRMRPPRLPRPRPRPSVCPRP | 0.386
72 | RRIRNRPPRLPRPRPRPESPPRP | 0.0142
73 | RRIRERPPRLPRPRPRPSWSPRP | -0.0285
74 | RRIRERPPRLPRPRPRPSWRPRP | -0.0751
75 | RRIRKRPPRLPRPRPRPINGPRP | 0.00103

Row | Sequence | shrunken log2 fold change
76 | RRIRQRPPRLPRPRPRPHSQPRP | 0.0419
77 | RRIRRRPPRLPRPRPRPDEVPRP | 0.61
78 | RRIRTRPPRLPRPRPRPAVTPRP | 0.102
79 | RRIRHRPPRLPRPRPRPNMDPRP | -0.173
80 | RRIRQRPPRLPRPRPRPGDPPRP | 0.0572
81 | RRIRIRPPRLPRPRPRPLHLPRP | -1.08
82 | RRIRFRPPRLPRPRPRPGWGPRP | 0.076
83 | RRIRKRPPRLPRPRPRPCECPRP | 0.62
84 | RRIRLRPPRLPRPRPRPRSMPRP | -0.326
85 | RRIRFRPPRLPRPRPRPPKNPRP | 0.541
86 | RRIRLRPPRLPRPRPRPNSCPRP | 0.00169
87 | RRIRRRPPRLPRPRPRPITIPRP | 0.035
88 | RRIRSRPPRLPRPRPRPMSHPRP | -0.109
89 | RRIRKRPPRLPRPRPRPPLCPRP | 0.668
90 | RRIRDRPPRLPRPRPRPWPCPRP | 0.462
91 | RRIRYRPPRLPRPRPRPSNTPRP | -1.06
92 | RRIRDRPPRLPRPRPRPWLRPRP | 0.081
93 | RRIRARPPRLPRPRPRPYAVPRP | -0.0829
94 | RRIRNRPPRLPRPRPRPPWWPRP | 0.788
95 | RRIRCRPPRLPRPRPRPTGQPRP | 0.123
96 | RRIRWRPPRLPRPRPRPLCSPRP | 0.13
97 | RRIRTRPPRLPRPRPRPCFFPRP | -0.202
98 | RRIRVRPPRLPRPRPRPDCNPRP | -0.497
99 | RRIRDRPPRLPRPRPRPAIKPRP | 0.235
100 | RRIRIRPPRLPRPRPRPNKHPRP | -0.727

Row | Sequence | shrunken log2 fold change
101 | RRIRGRPPRLPRPRPRPSDGPRP | -0.0367
102 | RRIRNRPPRLPRPRPRPIRTPRP | -0.176
103 | RRIRCRPPRLPRPRPRPHWEPRP | -0.132
104 | RRIRGRPPRLPRPRPRPGFIPRP | 0.0369
105 | RRIRERPPRLPRPRPRPPFMPRP | -0.185
106 | RRIRVRPPRLPRPRPRPLGMPRP | -0.481
107 | RRIRLRPPRLPRPRPRPKTYPRP | -0.511
108 | RRIRIRPPRLPRPRPRPHMDPRP | -0.103
109 | RRIRKRPPRLPRPRPRPYRSPRP | 0.0428
110 | RRIRYRPPRLPRPRPRPERIPRP | -0.21
111 | RRIRFRPPRLPRPRPRPDQAPRP | -0.0167
112 | RRIRCRPPRLPRPRPRPKSEPRP | -0.0877
113 | RRIRRRPPRLPRPRPRPSWCPRP | -0.154
114 | RRIRIRPPRLPRPRPRPLEFPRP | -0.196
115 | RRIRNRPPRLPRPRPRPCFTPRP | -0.733
116 | RRIRLRPPRLPRPRPRPTQIPRP | 0.14
117 | RRIRPRPPRLPRPRPRPHQSPRP | 0.238
118 | RRIRERPPRLPRPRPRPWAQPRP | -0.0813
119 | RRIRNRPPRLPRPRPRPPCCPRP | 0.123
120 | RRIRMRPPRLPRPRPRPFGWPRP | 0.32
121 | RRIRNRPPRLPRPRPRPNYNPRP | -1.07
122 | RRIRSRPPRLPRPRPRPYWIPRP | -0.267
123 | RRIRARPPRLPRPRPRPSPAPRP | 0.616
124 | RRIRARPPRLPRPRPRPKHVPRP | 0.0861
125 | RRIRIRPPRLPRPRPRPCDIPRP | -0.416
